Source: the supplement of paper PMC12042874
± gives the uncertainty stated by the source.

Assay: amyloid nucleation score (Sup35N fusion, yeast selection) (log enrichment); library NNK1; higher = more nucleation; inactive = no reads after selection
Procedure, shortened: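 Using DiMSum, nucleation scores were taken as the log enrichment of output over input reads, centred on the mode score of non-aggregating sequences. The input and output reads came from Illumina sequencing of plasmid inserts, with sequences under 100 input reads excluded. The yeast were psi-negative, expressed Sup35N fused to peptides of 20 random codons, were induced with 100 μM copper sulfate for 24 hours, and were grown 7 days at 30°C on medium lacking adenine and uracil.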

Substance	amyloid nucleation score
VALDIGFSWALSRLWLKRHF	0.095 ± 0.29
VALIRGRD	0.292 ± 0.32
VAMLQFASFQSSW	-0.323 ± 0.39
VANTCWQMMFLRMLSYFLRV	0.687 ± 0.44
VARFCNGYTHNIAMCTGIQR	-2.44 ± 2.4
VARYSDRSNTEAYRVRFLGI	1.28 ± 0.23
VATPISLGFPPWTSNVHAHT	inactive
VATPSSCVDSQAKTRMTGTL	-0.112 ± 0.44
VAVRTPMSVCSVLLGSGSGL	-0.162 ± 1.1
VAVTSSMFFRPNFNLNTVLS	3.69 ± 0.067
VCEISLN	0.016 ± 1.2
VCFTYNFSPQLVL	0.098 ± 0.38
VCINFHYLVGINVIRRNDWV	4.48 ± 0.1
VCLRLARWILHQKHTYVYWY	inactive
VCNIS	0.985 ± 0.42
VCSGTFGYHRRYEWDWVLKG	0.215 ± 1.2
VCSQHGGWISGGKGSILARS	-0.417 ± 0.99
VCTCTLVVDSTLCLGSVGTA	2.04 ± 0.18
VCVGFIGDVIRLERSANSVL	-0.049 ± 0.3
VCVGNAETYMERNYV	0.531 ± 0.4
VCVLFELMSKVKGQKARKDQ	0.425 ± 1.1
VCYSLSLNISFSFRNVVVRS	0.899 ± 0.58
VDDHDPKIGSMLPSIPNGVQ	-0.571 ± 0.42

Substance	amyloid nucleation score
VDFDPNVLFKWTDMKRSRSR	1.66 ± 0.48
VDLIPLEGVRGAWLQASQRG	0.664 ± 0.49
VDLVGYVVGIFNVYKVVEDT	-0.321 ± 0.23
VDRLAEMHTLEWARSVRLSV	0.55 ± 0.92
VDSRSWTNLMWSRVAKWLMG	0.155 ± 0.51
VDSVLIWIMFAAMGSKCPG	1.77 ± 0.23
VDVMRVVLNLNCSRTSVIYM	5.938 ± 0.048
VDYSLSENSTVLLNIWDL	-0.008 ± 0.46
VECLKV	0.387 ± 0.52
VEEGNMRCSNLMTLEHTTHK	-0.582 ± 0.42
VEGALGYGCASC	0.768 ± 0.65
VEIPHKKWNYVSHLLLSIHG	0.307 ± 0.3
VEMGIIFR	-0.339 ± 0.24
VEPSYMFGYVVDWEHMVLKS	-2.11 ± 2.4
VEQSFTAAPFQDVLF	-0.38 ± 0.32
VEVLWVEDGSQF	-0.559 ± 0.31
VFAICGSTCVGEKGTWPGEG	-0.263 ± 1.4
VFGAFSESLLYSR	0.51 ± 0.35
VFHFYILMNCESCVTGGVPV	7.938 ± 0.054
VFLHVES	1.85 ± 0.59
VFLMYRLMH	inactive
VFNWTHPWLSQH	-0.047 ± 0.78
VFRWRNKLRNNLCRGKYYWT	2.08 ± 0.43

Substance	amyloid nucleation score
VFSDTPALCIDGLKLFAMVR	-0.182 ± 0.3
VFSIIRPGMASSLHGQVQIA	1.28 ± 0.69
VFSKNFRVVIFTSNRSLFNK	0.595 ± 0.72
VFVTGLCSEDVTIYSTM	-2.44 ± 2.4
VFVVSVNHRMIVNFTSCLNV	inactive
VFYKYRQGARYDFF	0.227 ± 0.89
VFYQLCDWYNFGF	5.68 ± 0.1
VGFRGVLQIPGLSFPEALVR	0.024 ± 0.46
VGICMWHN	0.718 ± 0.21
VGISMHFRSRENFQSN	inactive
VGITDSNRVLILSGQIHGVM	0.6 ± 0.46
VGKELLLSLRYSNWVCLDWF	-0.715 ± 1.4
VGLISALANTGMFRTSNCVF	0.426 ± 0.5
VGRMPNGYVVGINIGLSRRL	-0.696 ± 1.7
VGRNNASLHSDKNRWFGFGF	1.49 ± 0.18
VGRTNFYCYWFPCRSLDLLS	5.8 ± 0.046
VGSCCNQ	7.591 ± 0.046
VGSKVYMTSAAMYFVNRGFV	6.11 ± 0.081
VHIFCSTTCFFMNFMLIQNK	-0.045 ± 0.51
VHNTRYSHVPNKKMRSVIRK	1.44 ± 0.42
VHTINRTQLYNIH	-0.215 ± 0.65
VHWLNCRLLGSLWVVGANWL	inactive
VICFWTLSRFYRGRD	-1.13 ± 0.62
